These are literature values, as cited in article PMC3025320.

In general, Kd refers to a measure of binding affinity in units of concentration.

The target of series [1] is C3d C3d (996-1303) (Homo sapiens) (UniProt P01024). Kind of series: ITC. (In ITC the heat of successive injections is recorded.)
A further series addresses C3d C3d (Homo sapiens) (UniProt P01024). Kind of series: ITC.

Chain of C3d C3d (Homo sapiens) (P01024 1002-1303): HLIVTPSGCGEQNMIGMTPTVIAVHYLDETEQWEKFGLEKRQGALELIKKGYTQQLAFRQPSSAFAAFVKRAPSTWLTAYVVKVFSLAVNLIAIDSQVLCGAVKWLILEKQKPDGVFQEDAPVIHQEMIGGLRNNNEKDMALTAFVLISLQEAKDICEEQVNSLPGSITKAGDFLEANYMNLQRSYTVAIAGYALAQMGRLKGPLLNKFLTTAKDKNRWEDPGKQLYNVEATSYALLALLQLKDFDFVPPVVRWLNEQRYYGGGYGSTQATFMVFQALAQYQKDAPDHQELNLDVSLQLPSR
Chain of C3d C3d (996-1303) (Homo sapiens) (P01024 996-1303): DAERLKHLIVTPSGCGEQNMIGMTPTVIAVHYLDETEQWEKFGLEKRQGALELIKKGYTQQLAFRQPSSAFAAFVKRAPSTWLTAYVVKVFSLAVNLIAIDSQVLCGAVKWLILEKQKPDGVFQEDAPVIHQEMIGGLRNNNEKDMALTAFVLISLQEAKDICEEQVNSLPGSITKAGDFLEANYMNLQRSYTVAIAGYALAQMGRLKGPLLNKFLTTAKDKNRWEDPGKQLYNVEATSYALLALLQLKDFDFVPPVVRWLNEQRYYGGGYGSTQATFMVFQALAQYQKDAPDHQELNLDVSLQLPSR
Chain of Efb-C Efb-C (P68799 101-165): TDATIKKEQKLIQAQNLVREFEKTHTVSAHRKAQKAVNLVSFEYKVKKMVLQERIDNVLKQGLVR

Take Sbi-IV domain IV (from UniProt A7X659): the dissociation constant Kd (in series [1]; in the series with C3d C3d (Homo sapiens)) was 360 nM in each case.
As for “Sbi-III–IV domains III-IV (from UniProt A7X659)”, the Kd in series [1] is 400 nM.
For the substance “Sbi-III-IV domains III-IV (from UniProt A7X659)”, the dissociation constant (Kd) with C3d C3d (Homo sapiens) is 400 nM.
As to Efb-C Efb-C (from UniProt P68799), the dissociation constant Kd in the series with C3d C3d (Homo sapiens) is 2 nM.
